The text below walks through data of the Human Domainome abundance scans (Beltran et al. 2025).

The chains are these.
B1: Calcium-binding protein 2, residues 155 to 219; numbered along this chain, Q9NPB3 (parent)
chain: RELRDAFREFDTNGDGRISVGELRAALKALLGERLSQREVDEILQDVDLNGDGLVDFEEFVRMMS

± gives the uncertainty stated by the source.

The data set covers variants of B1. Description: abundance fitness (aPCA) (normalised: wild type 0, dead -1); higher = more abundant; growth selection in yeast, the domain comes from the species named. As to conditions: Homo sapiens.
In the case of RELRDNFREFDTNGDGRISVGELRAALKALLGERLSQREVDEILQDVDLNGDGLVDFEEFVRMMS, the abundance fitness came to 0.042 ± 0.21. The same measure for RLLRDAFREFDTNGDGRISVGELRAALKALLGERLSQREVDEILQDVDLNGDGLVDFEEFVRMMS: -0.612 ± 0.058; for RELRQAFREFDTNGDGRISVGELRAALKALLGERLSQREVDEILQDVDLNGDGLVDFEEFVRMMS: -0.007 ± 0.075; for RELRYAFREFDTNGDGRISVGELRAALKALLGERLSQREVDEILQDVDLNGDGLVDFEEFVRMMS: -0.451 ± 0.087. The same measure for RELRDAFREFDTNWDGRISVGELRAALKALLGERLSQREVDEILQDVDLNGDGLVDFEEFVRMMS: -0.718 ± 0.081; for RELRDAFREFDTNDDGRISVGELRAALKALLGERLSQREVDEILQDVDLNGDGLVDFEEFVRMMS: -0.188 ± 0.17; for RELRDAFREFDTNCDGRISVGELRAALKALLGERLSQREVDEILQDVDLNGDGLVDFEEFVRMMS: -0.264 ± 0.18.

In the case of RELRDAFREFATNGDGRISVGELRAALKALLGERLSQREVDEILQDVDLNGDGLVDFEEFVRMMS, the abundance fitness is -0.677 ± 0.057. For the variant RELRDAFREFDTNGDGRISVGELRAALKALLGERLSQREVDEILQDVDLNGDGLVDFEEFVRMGS, the abundance fitness was 0.008 ± 0.078. On to RELRDAFREFDTNGDGRISVGELRAALKALLGERLSQREVDEILQDVDLNGDGLVDFEEFVRMWS, for which the abundance fitness was 0.104 ± 0.071.

With REYRDAFREFDTNGDGRISVGELRAALKALLGERLSQREVDEILQDVDLNGDGLVDFEEFVRMMS, the abundance fitness was -0.139 ± 0.17. As for RELRDAFREFDTNGDGRISVGESRAALKALLGERLSQREVDEILQDVDLNGDGLVDFEEFVRMMS, the abundance fitness is -0.238 ± 0.15. RELRDAFREFDTNGDGRISVGEQRAALKALLGERLSQREVDEILQDVDLNGDGLVDFEEFVRMMS: the abundance fitness is -0.468 ± 0.12. RELRDAFREFDTNGDGRISVGELRAALKLLLGERLSQREVDEILQDVDLNGDGLVDFEEFVRMMS: the abundance fitness was -0.051 ± 0.063. The same measure for RELRDAFREFDTNGDGRISVGELRAALKPLLGERLSQREVDEILQDVDLNGDGLVDFEEFVRMMS: -0.497 ± 0.089. The same measure for RELRDAFREFDTNGDGRISVGELRAALKALLGERLSQREVDEILQDVDLNGDGLVDFEERVRMMS: -0.798 ± 0.12; for RELRDAFREFDTNGDGRISVGELRAALKALLGERLSQREVDEILQDVDLNGDGLVDFEEVVRMMS: -0.278 ± 0.11; for RELRDAFREFDTNGDGRISVGELRAALKALLGERLSQREVDEFLQDVDLNGDGLVDFEEFVRMMS: -0.282 ± 0.29. The same measure for RELRDAFREFDTNGDGRISVGELRAALKALLGERLSQREVDEHLQDVDLNGDGLVDFEEFVRMMS: 0.161 ± 0.17. Take RELRDAFREFDTNGDGRISVGELRAALKALLGERLSQREVDEELQDVDLNGDGLVDFEEFVRMMS: the abundance fitness amounted to 0.038 ± 0.12. As to RELRDAFREFDTNGDGRISVGELRAALKALLGERLSQREVDEYLQDVDLNGDGLVDFEEFVRMMS, the abundance fitness was -0.345 ± 0.33. With RELRDAFREFDTNGDGRISVGELRAALKALLGERLSQREVDENLQDVDLNGDGLVDFEEFVRMMS, the abundance fitness stood at 0.053 ± 0.18.

As to RELRDAFREFDTNGDGRISHGELRAALKALLGERLSQREVDEILQDVDLNGDGLVDFEEFVRMMS, the abundance fitness is -0.043 ± 0.13. The same measure for RELRDAFREFDTNGDGRISCGELRAALKALLGERLSQREVDEILQDVDLNGDGLVDFEEFVRMMS: 0.061 ± 0.16. As for RELRDAFREFDTNGDGRISVGELRAALKAILGERLSQREVDEILQDVDLNGDGLVDFEEFVRMMS, the abundance fitness is -0.134 ± 0.16. With RELRDAFREFDTNGDGRRSVGELRAALKALLGERLSQREVDEILQDVDLNGDGLVDFEEFVRMMS, the abundance fitness is -0.808 ± 0.073.

For the variant RELRDAFREFDTNGDGRISVGELRAALKALLGERLSQREVDEILQDWDLNGDGLVDFEEFVRMMS, the abundance fitness was -0.199 ± 0.072.

RELRDAFREFDTNGDGRISVGELRAALKALLGERLSQREVDEILQDVDLNGDGLSDFEEFVRMMS: the abundance fitness is -0.394 ± 0.038. As to RELRDAFREFDTNGDGRISVGELRAALKALLGERLSQREVDEILQDVDLNGDGLCDFEEFVRMMS, the abundance fitness was -0.023 ± 0.041. As for RELRDAFREFDTNGDGRISVGELRAALKALLGERLSQREVDEILQDVDLNGDGLEDFEEFVRMMS, the abundance fitness is -1.02 ± 0.16. Consider RELRDAFREFDTNGDGRISVGELRNALKALLGERLSQREVDEILQDVDLNGDGLVDFEEFVRMMS, for which the abundance fitness is -0.109 ± 0.32. To RELRDAFREFDTNGDGRISVGELRHALKALLGERLSQREVDEILQDVDLNGDGLVDFEEFVRMMS belongs -0.012 ± 0.13. Regarding RELRDAFREFDTNGDGRISVGELRGALKALLGERLSQREVDEILQDVDLNGDGLVDFEEFVRMMS, the abundance fitness came out at 0.01 ± 0.061. For the variant RELRDAFREFDTNGDGRISVGELRAALKALLGERLSLREVDEILQDVDLNGDGLVDFEEFVRMMS, the abundance fitness is -0.017 ± 0.079. For the variant RELRDAFREFDTNGDGRISVGELRAALKALLGERLSQREVDEILQDVDLNGDYLVDFEEFVRMMS, the abundance fitness is -0.012 ± 0.25. To RELRDAFREFDTNGDGRISVGELRAALKALLGERLSQREVDEILQDVDLNGDVLVDFEEFVRMMS belongs -0.063 ± 0.062; to RELRDAFREFDTNGDGRISVGELRAALKALLGERLSQREVDEILQDVDLNGDALVDFEEFVRMMS, -0.115 ± 0.064. As to RELRDAFREFDTNGDMRISVGELRAALKALLGERLSQREVDEILQDVDLNGDGLVDFEEFVRMMS, the abundance fitness was -0.376 ± 0.15. For the variant RELRDAVREFDTNGDGRISVGELRAALKALLGERLSQREVDEILQDVDLNGDGLVDFEEFVRMMS, the abundance fitness was -0.891 ± 0.078. In the case of RELRDAGREFDTNGDGRISVGELRAALKALLGERLSQREVDEILQDVDLNGDGLVDFEEFVRMMS, the abundance fitness was -1.03 ± 0.058. As for RELRDAFREQDTNGDGRISVGELRAALKALLGERLSQREVDEILQDVDLNGDGLVDFEEFVRMMS, the abundance fitness is 0.156 ± 0.083.

Turning to RELRDAFREIDTNGDGRISVGELRAALKALLGERLSQREVDEILQDVDLNGDGLVDFEEFVRMMS, the abundance fitness is -0.038 ± 0.11.
